Source: patent US20020086018A1 (published 2002)

Biological target: T1, hTACI-Fc (soluble human TACI-Fc receptor fusion protein) (human, UniProt O14836 1-165)
T1 construct: also called shTACI-Fc; sTACI
T1 sequence: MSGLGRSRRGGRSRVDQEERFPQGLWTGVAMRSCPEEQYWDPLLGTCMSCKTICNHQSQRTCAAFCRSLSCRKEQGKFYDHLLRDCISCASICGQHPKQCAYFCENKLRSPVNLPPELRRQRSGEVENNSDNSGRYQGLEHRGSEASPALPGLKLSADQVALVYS
Experiment: BIAcore 2000; TACI-Fc immobilised on CM5, Flag-APRIL as analyte, 1:1 Langmuir model

B1: Soluble murine APRIL-Flag protein (FLAG-tagged soluble mouse G70) (ligand)
chain: KHKKKHSVLHLVPVNITSKADSDVTEVMWQPVLRRGRGLEAQGDIVRVWDTGIYLLYSQVLFHDVTFTMGQVVSREGQGRRETLFRCIRSMPSDPDRAYNSCYSAGVFHLHQGDIITVKIPRANAKLSLSPHGTFLGFV
Question: Which Kd does the source give for B1 here?
Answer: The Kd was 1.48 nM.
